Measured values as given in publication PMC6510727.
“And” between values parts separate entries of the source, which are not always exact repeats. Identical values can stand only once.

Columns and labels:
[1] = molecular target: PDE catalytic subunit (PDEα or PDEβ) of frog rod PDE (frog (Rana catesbeiana)); experiment: co-purification (Mono Q, Superdex 200) with SDS-PAGE quantification; native PDE purified from frog ROS membranes to almost 100% purity; subunits quantified on Oriole-stained gels with bovine serum albumin as molar standard
[2] = molecular target: PDE catalytic subunit (PDEα or PDEβ) of frog rod PDE (frog (Rana catesbeiana)); experiment: PDE activity on dilution (pH assay), fitted with equation (s5); frog ROS membranes at various concentrations of PDE (≤40 nM; PDE/rhodopsin taken as 1/270), in the light without GTP, 5 mM cGMP, room temperature
[3] = molecular target: PDE catalytic subunit (PDEα or PDEβ) of frog rod PDE (frog (Rana catesbeiana)); experiment: PDE activity on dilution (pH assay), fitted with equation (s5); purified PDE at diluted low concentrations (≤40 nM), in the light without GTP, 5 mM cGMP, room temperature; relative to trypsin-treated full activity

native PDEγ of frog rod PDE (freed reversibly from the catalytic subunit) (from UniProt H1AAN5 1-87) (natural protein)
molar ratio of 2PDEγ/PDEαβ [1]: 1.01
Kd [2]: 40 to 60 pM and 54 pM
Kd [3]: 10 pM and 5 to 20 pM
